T1: human FcγRIIb receptor protein (R&D Systems) (human, UniProt P31994 46-217)
T1 construct: Analyte injected over antibodies captured on a protein A/G chip (Biacore); also called CD32b
T1 sequence (looked up): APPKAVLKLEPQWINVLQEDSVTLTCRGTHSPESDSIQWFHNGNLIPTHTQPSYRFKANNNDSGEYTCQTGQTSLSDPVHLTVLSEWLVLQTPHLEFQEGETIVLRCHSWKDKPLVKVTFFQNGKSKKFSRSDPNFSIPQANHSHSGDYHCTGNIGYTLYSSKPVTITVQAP

T2: human H131 FcγRIIa receptor protein (6xHis and GST tags) (human, UniProt P12318 34-217, limits assumed)
T2 construct: also called HIIa
T2 sequence (looked up): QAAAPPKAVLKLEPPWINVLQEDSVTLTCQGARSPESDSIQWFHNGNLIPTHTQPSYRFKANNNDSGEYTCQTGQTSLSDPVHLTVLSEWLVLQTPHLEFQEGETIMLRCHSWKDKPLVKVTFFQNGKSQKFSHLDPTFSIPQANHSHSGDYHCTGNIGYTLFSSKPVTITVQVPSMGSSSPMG

T3: FcγRIIaR (human, UniProt P12318)
T3 construct: recombinant receptor protein with 6xHis and GST tags; also called R131 FcγRIIa
T3 sequence (receptor, looked up): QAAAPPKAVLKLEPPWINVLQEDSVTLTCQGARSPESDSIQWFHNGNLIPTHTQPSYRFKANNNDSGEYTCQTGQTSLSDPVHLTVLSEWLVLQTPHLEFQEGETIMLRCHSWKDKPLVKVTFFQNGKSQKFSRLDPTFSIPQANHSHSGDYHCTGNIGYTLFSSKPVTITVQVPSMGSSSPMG


Assays:
Test in all cases: SPR (Biacore)
[1] = target: T4, human V158 FcγRIIIa receptor protein (6xHis and GST tags) (human, UniProt P08637 17-208, limits assumed)
T4 construct: also called VIIIa
T4 sequence (P08637 17-208 F176V limits assumed): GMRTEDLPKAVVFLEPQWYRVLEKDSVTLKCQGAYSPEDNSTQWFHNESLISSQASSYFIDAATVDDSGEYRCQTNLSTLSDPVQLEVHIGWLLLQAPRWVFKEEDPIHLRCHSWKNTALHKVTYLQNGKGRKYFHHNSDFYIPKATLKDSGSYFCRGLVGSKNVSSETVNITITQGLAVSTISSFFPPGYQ

[2] = target: T1, human FcγRIIb receptor protein (R&D …)
[3] = target: T2, human H131 FcγRIIa receptor protein …
[4] = target: T5, human FcγRI receptor protein (R&D Systems) (human, UniProt P12314 16-288)
T5 construct: also called CD64
T5 sequence (P12314 16-288 limits assumed): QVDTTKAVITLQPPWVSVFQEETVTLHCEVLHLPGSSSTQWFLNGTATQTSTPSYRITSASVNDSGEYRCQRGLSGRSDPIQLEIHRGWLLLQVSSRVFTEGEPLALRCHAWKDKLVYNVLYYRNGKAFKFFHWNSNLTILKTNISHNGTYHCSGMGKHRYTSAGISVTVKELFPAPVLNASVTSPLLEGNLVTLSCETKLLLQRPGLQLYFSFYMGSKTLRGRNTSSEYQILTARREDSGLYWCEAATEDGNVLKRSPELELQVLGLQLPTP

FcγRIIaR = target: T3, FcγRIIaR

Row | binding result [1] | Fold FcγRIIb [2] [fold] | binding result [3] | Fold FcγRI [4] [fold] | Fold FcγRIIaR (FcγRIIaR) [fold] | Fold FcγRIIIaV [1] [fold] | Fold FcγRIIaH [3] [fold] | binding result [4] | Binder
1 | no binding | 0.409 | no binding | 0.0362 | 0.228 | – | – | – | L234F (antibody, human IgG1, kappa, HuAM4G7 IgG1 Fc variant) heavy: not shown light: DIVMTQSPATLSLSPGERATLSCRSSKSLQNVNGNTYLYWFQQKPGQSPQLLIYRMSNLNSGVPDRFSGSGSGTEFTLTISSLEPEDFAVYYCMQHLEYPITFGAGTKLEIKRTVAAPSVFIFPPSDEQLKSGTASVVCLLNNFYPREAKVQWKVDNALQSGNSQESVTEQDSKDSTYSLSSTLTLSKADYEKHKVYACEVTHQGLSSPVTKSFNRGEC
2 | – | 26.4 | – | 0.661 | 20.7 | 0.0938 | 0.509 | – | L234F/S267E (antibody, human IgG1, kappa, HuAM4G7 IgG1 Fc variant) heavy: not shown light: DIVMTQSPATLSLSPGERATLSCRSSKSLQNVNGNTYLYWFQQKPGQSPQLLIYRMSNLNSGVPDRFSGSGSGTEFTLTISSLEPEDFAVYYCMQHLEYPITFGAGTKLEIKRTVAAPSVFIFPPSDEQLKSGTASVVCLLNNFYPREAKVQWKVDNALQSGNSQESVTEQDSKDSTYSLSSTLTLSKADYEKHKVYACEVTHQGLSSPVTKSFNRGEC
3 | – | 0.351 | – | 0.0179 | 0.166 | 0.314 | 0.0486 | – | L235A (antibody, human IgG1, kappa, HuAM4G7 IgG1 Fc variant) heavy: not shown light: DIVMTQSPATLSLSPGERATLSCRSSKSLQNVNGNTYLYWFQQKPGQSPQLLIYRMSNLNSGVPDRFSGSGSGTEFTLTISSLEPEDFAVYYCMQHLEYPITFGAGTKLEIKRTVAAPSVFIFPPSDEQLKSGTASVVCLLNNFYPREAKVQWKVDNALQSGNSQESVTEQDSKDSTYSLSSTLTLSKADYEKHKVYACEVTHQGLSSPVTKSFNRGEC
4 | no binding | 16.7 | no binding | 0.00039 | 13 | – | – | – | L235D/S267E (antibody, human IgG1, kappa, HuAM4G7 IgG1 Fc variant) heavy: not shown light: DIVMTQSPATLSLSPGERATLSCRSSKSLQNVNGNTYLYWFQQKPGQSPQLLIYRMSNLNSGVPDRFSGSGSGTEFTLTISSLEPEDFAVYYCMQHLEYPITFGAGTKLEIKRTVAAPSVFIFPPSDEQLKSGTASVVCLLNNFYPREAKVQWKVDNALQSGNSQESVTEQDSKDSTYSLSSTLTLSKADYEKHKVYACEVTHQGLSSPVTKSFNRGEC
5 | no binding | 80.4 | – | 0.00057 | 133 | – | 0.275 | – | L235D/S267E/L328F (antibody, human IgG1, kappa, HuAM4G7 IgG1 Fc variant) heavy: EVQLVESGGGLVKPGGSLKLSCAASGYTFTSYVMHWVRQAPGKGLEWIGYINPYNDGTKYNEKFQGRVTISSDKSISTAYMELSSLRSEDTAMYYCARGTYYYGTRVFDYWGQGTLVTVSSASTKGPSVFPLAPSSKSTSGGTAALGCLVKDYFPEPVTVSWNSGALTSGVHTFPAVLQSSGLYSLSSVVTVPSSSLGTQTYICNVNHKPSNTKVDKKVEPKSCDKTHTCPPCPAPELDGGPSVFLFPPKPKDTLMISRTPEVTCVVVDVEHEDPEVKFNWYVDGVEVHNAKTKPREEQYNSTYRVVSVLTVLHQDWLNGKEYKCKVSNKAFPAPIEKTISKAKGQPREPQVYTLPPSREEMTKNQVSLTCLVKGFYPSDIAVEWESNGQPENNYKTTPPVLDSDGSFFLYSKLTVDKSRWQQGNVFSCSVMHEALHNHYTQKSLSLSPGK light: DIVMTQSPATLSLSPGERATLSCRSSKSLQNVNGNTYLYWFQQKPGQSPQLLIYRMSNLNSGVPDRFSGSGSGTEFTLTISSLEPEDFAVYYCMQHLEYPITFGAGTKLEIKRTVAAPSVFIFPPSDEQLKSGTASVVCLLNNFYPREAKVQWKVDNALQSGNSQESVTEQDSKDSTYSLSSTLTLSKADYEKHKVYACEVTHQGLSSPVTKSFNRGEC
6 | no binding | 28.4 | – | 0.0176 | 32.5 | – | 0.402 | – | L235F/S267E (antibody, human IgG1, kappa, HuAM4G7 IgG1 Fc variant) heavy: not shown light: DIVMTQSPATLSLSPGERATLSCRSSKSLQNVNGNTYLYWFQQKPGQSPQLLIYRMSNLNSGVPDRFSGSGSGTEFTLTISSLEPEDFAVYYCMQHLEYPITFGAGTKLEIKRTVAAPSVFIFPPSDEQLKSGTASVVCLLNNFYPREAKVQWKVDNALQSGNSQESVTEQDSKDSTYSLSSTLTLSKADYEKHKVYACEVTHQGLSSPVTKSFNRGEC
7 | – | 0.908 | – | 0.0197 | 0.666 | 0.903 | 0.181 | – | L235I (antibody, human IgG1, kappa, HuAM4G7 IgG1 Fc variant) heavy: not shown light: DIVMTQSPATLSLSPGERATLSCRSSKSLQNVNGNTYLYWFQQKPGQSPQLLIYRMSNLNSGVPDRFSGSGSGTEFTLTISSLEPEDFAVYYCMQHLEYPITFGAGTKLEIKRTVAAPSVFIFPPSDEQLKSGTASVVCLLNNFYPREAKVQWKVDNALQSGNSQESVTEQDSKDSTYSLSSTLTLSKADYEKHKVYACEVTHQGLSSPVTKSFNRGEC
8 | – | 1.05 | – | 0.00232 | 1.28 | 0.504 | 1.35 | – | L235Y (antibody, human IgG1, kappa, HuAM4G7 IgG1 Fc variant) heavy: not shown light: DIVMTQSPATLSLSPGERATLSCRSSKSLQNVNGNTYLYWFQQKPGQSPQLLIYRMSNLNSGVPDRFSGSGSGTEFTLTISSLEPEDFAVYYCMQHLEYPITFGAGTKLEIKRTVAAPSVFIFPPSDEQLKSGTASVVCLLNNFYPREAKVQWKVDNALQSGNSQESVTEQDSKDSTYSLSSTLTLSKADYEKHKVYACEVTHQGLSSPVTKSFNRGEC
9 | no binding | 25 | no binding | – | 9.67 | – | – | no binding | L235Y/G236D/S267E (antibody, human IgG1, kappa, HuAM4G7 IgG1 Fc variant) heavy: EVQLVESGGGLVKPGGSLKLSCAASGYTFTSYVMHWVRQAPGKGLEWIGYINPYNDGTKYNEKFQGRVTISSDKSISTAYMELSSLRSEDTAMYYCARGTYYYGTRVFDYWGQGTLVTVSSASTKGPSVFPLAPSSKSTSGGTAALGCLVKDYFPEPVTVSWNSGALTSGVHTFPAVLQSSGLYSLSSVVTVPSSSLGTQTYICNVNHKPSNTKVDKKVEPKSCDKTHTCPPCPAPELYDGPSVFLFPPKPKDTLMISRTPEVTCVVVDVEHEDPEVKFNWYVDGVEVHNAKTKPREEQYNSTYRVVSVLTVLHQDWLNGKEYKCKVSNKALPAPIEKTISKAKGQPREPQVYTLPPSREEMTKNQVSLTCLVKGFYPSDIAVEWESNGQPENNYKTTPPVLDSDGSFFLYSKLTVDKSRWQQGNVFSCSVMHEALHNHYTQKSLSLSPGK light: DIVMTQSPATLSLSPGERATLSCRSSKSLQNVNGNTYLYWFQQKPGQSPQLLIYRMSNLNSGVPDRFSGSGSGTEFTLTISSLEPEDFAVYYCMQHLEYPITFGAGTKLEIKRTVAAPSVFIFPPSDEQLKSGTASVVCLLNNFYPREAKVQWKVDNALQSGNSQESVTEQDSKDSTYSLSSTLTLSKADYEKHKVYACEVTHQGLSSPVTKSFNRGEC
10 | – | 116 | – | 1.07 | 98.9 | 2.6 | 1.05 | – | L235Y/S239D/S267E (antibody, human IgG1, kappa, HuAM4G7 IgG1 Fc variant) heavy: EVQLVESGGGLVKPGGSLKLSCAASGYTFTSYVMHWVRQAPGKGLEWIGYINPYNDGTKYNEKFQGRVTISSDKSISTAYMELSSLRSEDTAMYYCARGTYYYGTRVFDYWGQGTLVTVSSASTKGPSVFPLAPSSKSTSGGTAALGCLVKDYFPEPVTVSWNSGALTSGVHTFPAVLQSSGLYSLSSVVTVPSSSLGTQTYICNVNHKPSNTKVDKKVEPKSCDKTHTCPPCPAPELYGGPDVFLFPPKPKDTLMISRTPEVTCVVVDVEHEDPEVKFNWYVDGVEVHNAKTKPREEQYNSTYRVVSVLTVLHQDWLNGKEYKCKVSNKALPAPIEKTISKAKGQPREPQVYTLPPSREEMTKNQVSLTCLVKGFYPSDIAVEWESNGQPENNYKTTPPVLDSDGSFFLYSKLTVDKSRWQQGNVFSCSVMHEALHNHYTQKSLSLSPGK light: DIVMTQSPATLSLSPGERATLSCRSSKSLQNVNGNTYLYWFQQKPGQSPQLLIYRMSNLNSGVPDRFSGSGSGTEFTLTISSLEPEDFAVYYCMQHLEYPITFGAGTKLEIKRTVAAPSVFIFPPSDEQLKSGTASVVCLLNNFYPREAKVQWKVDNALQSGNSQESVTEQDSKDSTYSLSSTLTLSKADYEKHKVYACEVTHQGLSSPVTKSFNRGEC
